{"source": "patent US20150037304", "experiment_in_all_cases": "cell_activity", "key": {"[1]": {"system": "ZFN SBS#18881 (ZFN-R, HLA-A2) (synthetic construct)", "conditions": "pair with 18889, EL/KK FokI, primary T cells, 2.5 ug each mRNA; 19% at 37C and up to 57% with 30C cold shock without EL/KK"}, "[2]": {"system": "ZFN SBS#18889 (ZFN-L, HLA-A2) (synthetic construct)", "conditions": "pair with 18881, EL/KK FokI, primary T cells, 2.5 ug each mRNA; 19% at 37C and up to 57% with 30C cold shock without EL/KK; Table 2 prints AGG where listing …"}, "[3]": {"system": "ZFN SBS#25191 (HLA-A3) (synthetic construct)", "conditions": "HEK293, Surveyor assay; ZFN identity (pair 25191/25190) inferred from Table 1"}, "[4]": {"system": "ZFN SBS#25190 (HLA-A3) (synthetic construct)", "conditions": "HEK293, Surveyor assay; ZFN identity (pair 25191/25190) inferred from Table 1"}}}
{"sequence": "TTATCTGGATGGTGTGAGAACCTGGCCC (double strand) [HLA-A2 target site of 18881]", "values": [{"measurement": "activity (% HLA-A2 negative cells)", "setting": "[1]", "value": 52}]}
{"sequence": "GTATGGCTGCGACGTGGGGTCGGACGGG (double strand) [HLA-A2 target site of 18889]", "values": [{"measurement": "activity (% HLA-A2 negative cells)", "setting": "[2]", "value": 52}]}
{"sequence": "ATGGAGCCGCGGGCGCCGTGGATAGAGC (double strand) [HLA-A3 target site of 25191]", "values": [{"measurement": "activity (% modified HLA-A3 alleles)", "setting": "[3]", "value": 10}]}
{"sequence": "CTGGCTCGCGGCGTCGCTGTCGAACCGC (double strand) [HLA-A3 target site of 25190]", "values": [{"measurement": "activity (% modified HLA-A3 alleles)", "setting": "[4]", "value": 10}]}
